Assay results taken from article PMC4087167 (Cell, 2014).

B1: GRLBD(F602S) (domain or fragment, UniProt P04150 521-777, looked up)
chain: VPATLPQLTPTLVSLLEVIEPEVLYAGYDSSVPDSTWRIMTTLNMLGGRQVIAAVKWAKAIPGFRNLHLDDQMTLLQYSWMSLMAFALGWRSYRQSSANLLCFAPDLIINEQRMTLPCMYDQCKHMLYVSSELHRLQVSYEEYLCMKTLLLLSSVPKDGLKSQELFDEIRMTYIKELGKAIVKREGNSSQNWQRFYQLTKLLDSMHEVVENLLNYCFQTFLDKTMSIEFPEMLAEIITNQIPKYSNGNIKKLLFHQK

How the values were obtained:
Human Hsp90α [1] = target: T1, Human Hsp90α (human, UniProt P07900 1-732); test: pull-down
Hsp90(E47A) = Hsp90(E47A) (human, UniProt P07900 1-732, E47A); test: pull-down
Hsp90(D93N) = Hsp90(D93N) (human, UniProt P07900 1-732, D93N); test: pull-down
Human HOP = Human HOP (human, UniProt P31948 1-543); test: pull-down
Human Hsp90α [2] = target: T1, Human Hsp90α; test: cryo-EM structure
GRLBD(F602S) = target: B1; test: pull-down

Binder: B1
- binding result (Human Hsp90α [1]): binds
- binding result (Hsp90(E47A)): binds
- binding result (Hsp90(D93N)): binds
- binding result (Human HOP): binds

B2: MBP-GRLBD(F602S) (domain or fragment, UniProt P04150 521-777, looked up)
chain: VPATLPQLTPTLVSLLEVIEPEVLYAGYDSSVPDSTWRIMTTLNMLGGRQVIAAVKWAKAIPGFRNLHLDDQMTLLQYSWMSLMAFALGWRSYRQSSANLLCFAPDLIINEQRMTLPCMYDQCKHMLYVSSELHRLQVSYEEYLCMKTLLLLSSVPKDGLKSQELFDEIRMTYIKELGKAIVKREGNSSQNWQRFYQLTKLLDSMHEVVENLLNYCFQTFLDKTMSIEFPEMLAEIITNQIPKYSNGNIKKLLFHQK
- binding result (Human Hsp90α [2]): binds

B3: Human p23 (natural protein, UniProt Q15185 1-160, looked up)
chain: MQPASAKWYDRRDYVFIEFCVEDSKDVNVNFEKSKLTFSCLGGSDNFKHLNEIDLFHCIDPNDSKHKRTDRSILCCLRKGESGQSWPRLTKERAKLNWLSVDFNNWKDWEDDSDEDMSNFDRFSEMMNNMGGDEDVDLPEVDGADDDSQDSDDEKMPDLE
- binding result (Human Hsp90α [1]): binds
- binding result (GRLBD(F602S)): binds
